The text below walks through data of patent US20170327594A1 (UNIVERSIT T STUTTGART, published 2017).

For experiment [1], the target named is T1, EGFR-Fc fusion protein (UniProt P00533 25-645, limits assumed).
T1 construct: extracellular domain; also called Fc fusion protein of the extracellular region of EGFR; immobilized EGFR; not shown: Fc part
Kind of experiment: ELISA titration on immobilized EGFR; the scFv is the weaker comparator.

Experiment [2] addresses T2, EGFR on tumor cell lines (UniProt P00533 25-1210, limits assumed). Nature of the experiment: cell-based or functional assay.
Experiment [3] has as its target T2, EGFR on tumor cell lines. Kind of experiment: cell-based or functional assay. This is another data set of the same source.
Another experiment deals with T3, HER2-Fc fusion protein (UniProt P04626 23-652, limits assumed).
T3 construct: extracellular domain; also called Fc fusion protein of the extracellular region of HER2; not shown: Fc part
Kind of experiment: ELISA on immobilized HER2-Fc. (In general: ELISA stands for enzyme-linked immunosorbent assay.)

The target in experiment [4] is T4, recombinant TRAIL-R1 (receptor-Fc fusion protein) (UniProt O00220 24-239, limits assumed).
T4 construct: also called TRAIL receptor 1; not shown: Fc part
Kind of experiment: ELISA on recombinant receptor-Fc.

For experiment [5], the target named is T2, EGFR on tumor cell lines. Kind of experiment: flow cytometry, NCI-H460 cells. As for the experimental part: Bound proteins were detected with a FITC-labelled anti-His-tag antibody.
Furthermore, the antibody-MHD2 fusion proteins were analyzed by flow cytometry for binding to different tumor cell lines expressing various amounts of EGFR and HER2 (FIG. 4b).
(Flow cytometry measures light scatter and fluorescence of single cells or particles in a stream.)

Experiment [6] addresses T1, EGFR-Fc fusion protein. Kind of experiment: ELISA on immobilized receptor-Fc.
Another experiment concerns the target T5, HER3-Fc fusion protein (UniProt P21860 20-643, limits assumed).
T5 construct: extracellular domain; Negative control; also called Fc fusion protein of the extracellular region of HER3; not shown: Fc part
Kind of experiment: ELISA on immobilized receptor-Fc.

Experiment [7] concerns the target T1, EGFR-Fc fusion protein. Nature of the experiment: ELISA on immobilized EGFR-Fc.
In experiment [8] the target is T2, EGFR on tumor cell lines. Kind of experiment: flow cytometry, Colo205 and NCI-H460 cells.

B1: anti-EGFR scFv (hu225) (scFv)
scFv: EVQLVESGGGLVQPGGSLRLSCAASGFSLTNYGVHWVRQAPGKGLEWLGVIWSGGNTDYNTPFTSRFTISRDNSKNTLYLQMNSLRAEDTAVYYCARALTYYDYEFAYWGQGTTVTVSSGGGGSGGGGSGGGGSDIQLTQSPSFLSASVGDRVTITCRASQSIGTNIHWYQQKPGKAPKLLIKYASESISGVPSRFSGSGSGTEFTLTISSLQPEDFATYYCQQNNNWPTTFGAGTKLEIKR
notes: also called monovalent anti-EGFR scFv; scFv directed against EGFR
For the molecule B1, the binding result in the experiment with EGFR-Fc fusion protein [1] is reported as “binds”.

B2: scFvEGFR-EHD2-scTRAIL (other)
chain: DYKDDDDKGGGGSAAQPAMAEVQLVESGGGLVQPGGSLRLSCAASGFSLTNYGVHWVRQAPGKGLEWLGVIWSGGNTDYNTPFTSRFTISRDNSKNTLYLQMNSLRAEDTAVYYCARALTYYDYEFAYWGQGTTVTVSSGGGGSGGGGSGGGGSDIQLTQSPSFLSASVGDRVTITCRASQSIGTNIHWYQQKPGKAPKLLIKYASESISGVPSRFSGSGSGTEFTLTISSLQPEDFATYYCQQNNNWPTTFGAGTKLEIKRAAAGGSGGDFTPPTVKILQSSCDGGGHFPPTIQLLCLVSGYTPGTINITWLEDGQVMDVDLSTASTTQEGELASTQSELTLSQKHWLSDRTYTCQVTYQGHTFEDSTKKCADSNGGSGGEFTRGTSEETISTVQEKQQNISPLVRERGPQRVAAHITGTRGRSNTLSSPNSKNEKALGRKINSWESSRSGHSFLSNLHLRNGELVIHEKGFYYIYSQTYFRFQEEIKENTKNDKQMVQYIYKYTSYPDPILLMKSARNSCWSKDAEYGLYSIYQGGIFELKENDRIFVSVTNEHLIDMDHEASFFGAFLVGGGGSGGGSTSEETISTVQEKQQNISPLVRERGPQRVAAHITGTRGRSNTLSSPNSKNEKALGRKINSWESSRSGHSFLSNLHLRNGELVIHEKGFYYIYSQTYFRFQEEIKENTKNDKQMVQYIYKYTSYPDPILLMKSARNSCWSKDAEYGLYSIYQGGIFELKENDRIFVSVTNEHLIDMDHEASFFGAFLVGGGGSGGGSTSEETISTVQEKQQNISPLVRERGPQRVAAHITGTRGRSNTLSSPNSKNEKALGRKINSWESSRSGHSFLSNLHLRNGELVIHEKGFYYIYSQTYFRFQEEIKENTKNDKQMVQYIYKYTSYPDPILLMKSARNSCWSKDAEYGLYSIYQGGIFELKENDRIFVSVTNEHLIDMDHEASFFGAFLVG
notes: Homodimer: anti-EGFR scFv, EHD2, single-chain TRAIL, FLAG-tagged; also called scFv-EHD2-scTRAIL; anti-EGFR scFv-EHD2-scTRAIL
Take B2: the “cytotoxic activity against EHD2-scTRAIL, no bortezomib (NCI-H460, Colo205)” value with EGFR on tumor cell lines [2] was ~20 fold. In addition, in the experiment with EGFR on tumor cell lines [3], the “IC50 (nM), in vitro cytotoxicity, Colo205, no bortezomib, no cetuximab” value worked out at 0.5 nM; the “IC50 (nM), in vitro cytotoxicity, Colo205, with bortezomib, no cetuximab” value was 0.14 nM; the “IC50 (nM), in vitro cytotoxicity, Colo205, with bortezomib, with cetuximab” value came to 1.43 nM; the “IC50 (nM), in vitro cytotoxicity, NCI-H460, no bortezomib, no cetuximab” value turned out to be 0.32 nM. In addition, in the experiment with EGFR on tumor cell lines [3], the “IC50 (nM), in vitro cytotoxicity, NCI-H460, with bortezomib, no cetuximab” value worked out at 0.02 nM and the “IC50 (nM), in vitro cytotoxicity, NCI-H460, with bortezomib, with cetuximab” value amounted to 0.15 nM. Also, the binding result with HER2-Fc fusion protein is “no binding”. For the same molecule, the binding result in experiment [4] was “binds”.

B3: scFvEGFR-MHD2 (scFv)
chain: DAAQPAMAEVQLVESGGGLVQPGGSLRLSCAASGFSLTNYGVHWVRQAPGKGLEWLGVIWSGGNTDYNTPFTSRFTISRDNSKNTLYLQMNSLRAEDTAVYYCARALTYYDYEFAYWGQGTTVTVSSGGGGSGGGGSGGGGSDIQLTQSPSFLSASVGDRVTITCRASQSIGTNIHWYQQKPGKAPKLLIKYASESISGVPSRFSGSGSGTEFTLTISSLQPEDFATYYCQQNNNWPTTFGAGTKLEIKRGSLGGSGGAELPPKVSVFVPPRDGFFGNPRKSKLICQATGFSPRQIQVSWLREGKQVGSGVTTDQVQAEAKESGPTTYKVTSTLTIKESDWLGQSMFTCRVDHRGLTFQQNASSMCVPDGGGSGGGTGSEFAAAHHHHHH
notes: Bivalent homodimer: humanized anti-EGFR scFv (hu225) at the N-terminus of the IgM heavy chain domain 2, C-terminal His6; also called scFvA-MHD2; scFv-MHD2
Consider B3, for which the binding result in the experiment with EGFR on tumor cell lines [5] was “binds”; with EGFR-Fc fusion protein [6], “binds”; in the experiment with HER3-Fc fusion protein, “no binding”.

B4: scFvEGFR-EHD2 (scFv)
chain: DAAQPAMAEVQLVESGGGLVQPGGSLRLSCAASGFSLTNYGVHWVRQAPGKGLEWLGVIWSGGNTDYNTPFTSRFTISRDNSKNTLYLQMNSLRAEDTAVYYCARALTYYDYEFAYWGQGTTVTVSSGGGGSGGGGSGGGGSDIQLTQSPSFLSASVGDRVTITCRASQSIGTNIHWYQQKPGKAPKLLIKYASESISGVPSRFSGSGSGTEFTLTISSLQPEDFATYYCQQNNNWPTTFGAGTKLEIKRGSLGGSGGDFTPPTVKILQSSCDGGGHFPPTIQLLCLVSGYTPGTINITWLEDGQVMDVDLSTASTTQEGELASTQSELTLSQKHWLSDRTYTCQVTYQGHTFEDSTKKCADSNGGGSGGGTGSEFAAAHHHHHH
notes: Bivalent homodimer: anti-EGFR scFv at the N-terminus of the IgE heavy chain domain 2, hexahistidyl-tagged; also called scFv-EHD2
With B4, the binding result with EGFR-Fc fusion protein [7] is “binds”; in the experiment with HER2-Fc fusion protein, “no binding”; with EGFR on tumor cell lines [8], “binds”.
